Assay results published in the supplement of paper PMC9170038.

Key:
[1] = test system: MS2 coat protein; experiment: apparent KD of MS2 coat protein, switch ON state; designed switch direction (-1 OFF switch, 1 ON switch): -1; higher = weaker reporter binding; settings: FMN input: 0 or 200 uM; Eterna round: R93 (includes R88 designs)
How it was run: (§1)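 The designed RNA switches were transcribed on-chip from Illumina sequencing clusters. In 100 mM Tris-HCl pH 7.5, 80 mM KCl and 4 mM MgCl2, without or with constant ligand, they were titrated with SNAP-549-labelled MS2 coat protein from 0.7 or 1.5 nM to 3 µM in twofold steps. Apparent KD is the per-design median of normalised cluster binding-curve fits.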

[2] = test system: MS2 coat protein; experiment: apparent KD of MS2 coat protein, switch OFF state (with FMN for OFF switches, without FMN for ON switches); designed switch direction (-1 OFF switch, 1 ON switch): -1; higher = weaker reporter binding; settings: FMN input: 0 or 200 uM; Eterna round: R93 (includes R88 designs)
How it was run: as §1

Row | Sequence | apparent KD of MS2 coat protein [1] [nM] | apparent KD of MS2 coat protein [2] [nM]
1 | ACAGUUACAGGAUAUACAAAGGUAACUUCAAAGAAAACUCUACAUGAGGAUCACCCAUGUAGAAGGGUAACUGA [Ex2 Design 200 (probably): Random 17] | 14.3 | 18.2
2 | GAAAAUGGAGGAUAUACAUGAGGAUCACCCAUGUGUAAAAAAAAUUACACAAAAGAAAGUAGAAGGCCAUAAAA [Mat - Exclusion 3 - Mayanna mod - D107] | 66.4 | 174
3 | AAAGGAUCAGGAUAUGUGUGGAAAAAGUGUGUCCCAAAAAAACAUGAGGAUCACCCAUGUAGAAGGGAUCCAAA [Mod 5 of Normal (20/19) by Nando, Round 1] | 44.9 | 97.8
4 | AACAGUACAGGAUAUACAUGAGGAUCACCCAUGUAAAAAAAGGGUGGCGUACCACGAAGUAGAAGGGUACUGGA [Moding Maslow revisited (73) 11] | 187 | 81.3
5 | AAACCACAUGAGGAUCACCCAUGUAAGGAUAUGAACGAAAUAAAAUAAAAAUAAAAGUUCAGAAGGUACAAAAA [Mat - Exclusion 1 - Eli mod - D22] | 22.6 | 22.1
6 | AACAGGGCAGGAUAUACAUGAGGAUCACCCAUGUAGGAAACAAGCAGAGUACCAAAAAGUAGAAGGGUCAUGGA [Ruby 31] | 30.2 | 33.1
7 | AUAGGCCUAGGAUAUACAUGAGGAUCACCCAUGUAAACCGAUAGAUCACGGUAAACGUGUAGAAGGAGGAAUAA [JR_Exc003_Sub207] | 24.4 | 20.6
8 | CUCUUGUCAGGAUAUUGAAGAAAAGAAGAGAAAGAAAAGAACAAGAAGGGACAUGAGGAUCACCCAUGUAAGAA [EteRNA is fun!] | 61.8 | 66.7
9 | AGCUAGUCAGGAUAUACGCAAACGAACGAAGCUGAGAAGGGACAUGAGGAUCACCCAUGUAGAAGGGACUAGCA [Diamond 32] | 25.3 | 55.6
10 | AGAAAGUCAGGAUAUGUGGAAAAAAUAAAAAAAAUAAAAACACAGAAGGGACAUGAGGAUCACCCAUGUUAAGA [Mat - Exclusion 4 - Mayanna - D139] | 53.4 | 30.3
11 | AAAAAACAUGAGGAUCACCCAUGUGAGGAUAUGAAAUUACUAAGACAACUGUAAUCAAUCAGAAGGCACAACAA [JR_Exc--1_Sub1207] | 23.6 | 38.6
12 | GAAAAGUCAGGAUAUACAGAAAAAAAAACGAAAAAAAAUCUGUAGAAGGGACAUGAGGAUCACCCAUGUAAAAA [Mat - Exclusion 4 - Mayanna - D122] | 51.4 | 37.6
13 | CCAAGACAUGAGGAUCACCCAUGUGAGGAUAUAGGUGUAUGCAAAAAAAAGUUAAAAACUAGAAGGCACAGAAA [JR_Exc001_Sub306] | 30.7 | 25
14 | AAACAACAUGAGGAUCACCCAUGUCAGGAUAUGAACGAAAUAAAAUAAAAAUAAAAGUUCAGAAGGGACGAAAA [Mat - Exclusion 1 - Eli mod - D18] | 36.7 | 50.1
15 | AAGGUACGAGGAUAUACAUAGAUACAGACACAUGUAGAUGUACAUGAGGAUCACCCAUGUAGAAGGCGUAUAUA [AJ 20] | 60.7 | 97.5
16 | AAAACUGGAGGAUAUACGAACAUGUCAAAAGACGUGAAGGGACAUGAGGAUCACCCAUGUAGAAGGCUAGAAAA [JL Stem Breaker 10] | 52.3 | 34.2
17 | AAAAAGGCAGGAUAUACAAAAAAAAAAAAAGAGGAGGAGGGACAUGAGGAUCACCCAUGUAGAAGGGCCAAAAA [William Edward Burghardt 'W. E. B.' Du Bois] | 35.4 | 63.7

Row | Sequence | apparent KD of MS2 coat protein [1] [nM] | apparent KD of MS2 coat protein [2] [nM]
18 | GAAGAACAUGAGGAUCACCCAUGUCAGGAUAUGCAGAAGGGAAUAAUAACCUCUGGAAGCAGAAGGGACAAGAA [Ex 1 May 48] | 33.5 | 59.4
19 | AGAAAGUCAGGAUAUCAGAAUAAGUCGAAAACGACUAGUAAUGAGAAGGGACAUGAGGAUCACCCAUGUAAGAA [Ex4 sub 3] | 49 | 37.1
20 | UAAAGACAUGAGGAUCACCCAUGUGAGGAUAUCGGAGAUGACGGAACAUCGAGUUCGGCGAGAAGGCGCAGGAA [JR_Exc001_Sub407] | 30.1 | 29.2
21 | UCCGGACAUGAGGAUCACCCAUGUGAGGAUAUAUAACGUGGGACUGGAAACAAUCCCAAUAGAAGGCACAUGAC [Reisatridi] | 21.5 | 20.2
22 | AACAGUACAGGAUAUACAUGAGGAUCACCCAUGUCACAAUUAAGCAGCGUAACACAAAGUAGAAGGGUAAUGGA [Ruby 17] | 46.4 | 31.1
23 | GUGUACAGAGGAUAUACGGGAGCUAGGAAACUAGCAACCUCACAUGAGGAUCACCCAUGUAGAAGGCUGUACAC [Ex2: 752] | 159 | 799
24 | AAAAAACAUGAGGAUCACCCAUGUAAGGAUAUGCUAGGAAAAAGAAAAAUAAAAACUAGCAGAAGGUACAUUAA [JL wbt mod 9] | 26.6 | 38.3
25 | GGUGGCGUAGGAUAUACAUGAGGAUCACCCAUGUGAGAGAAAAAAGUGAGAAAGAAAAGUAGAAGGACGUUACG [salish99-ex3-126] | 40.3 | 147
26 | GGAAAACAUGAGGAUCACCCAUGUAAGGAUAUGCAAAAAAGGAUAUAGAAGGAAAAAAGCAGAAGGUACAAAGG [salish99-ex1-23] | 27.1 | 69.8
27 | AACUGACAUGAGGAUCACCCAUGUCAGGAUAUGAUAUGUAAAAAAAAAAAAAUACUUAUCAGAAGGGACAUGGG [Design 40: Sub-opt AB] | 15.3 | 15.4
28 | AUUAUGUAAGGAUAUGUACGAACAACAAAACAAAUAACGGUACAGAAGGUACAUGAGGAUCACCCAUGUAUAAA [May 71] | 23.6 | 21.4
29 | AAGAAACAUGAGGAUCACCCAUGUCAGGAUAUGAAAAAGAAAAGAAAAGAAAGAAGAAUCAGAAGGGACAAAGG [Neferkauhor Khuwihapi] | 74.1 | 27.4
30 | AAAAAACAUGAGGAUCACCCAUGUCAGGAUAUUUCUAAAAAAAAAAAAAAAAAAAAUGAAAGAAGGGACAAAAA [excalibur 6] | 58 | 52.5
31 | GCUGUCGAAGGAUAUACAUGAGGAUCACCCAUGUGAGAGAAAAAAGUGAGAAAGAAAAGUAGAAGGUCGGUAGG [salish99-ex3-97] | 29.6 | 35.7
32 | AUCAUGUAAGGAUAUAAAAGAAAAGAAAAGAAAGAAAAGAAUUAGAAGGUACAUGAGGAUCACCCAUGUAAGAA [EteRNA is fun!] | 30.3 | 17.9
33 | UAUAGACAUGAGGAUCACCCAUGUGAGGAUAUCGGUGACUACAGGACAUCACGUACAAUGAGAAGGCACAGAAA [JR_Exc001_Sub017] | 40.3 | 44.2
34 | AAAUGACAUGAGGAUCACCCAUGUCAGGAUAUGACUUGAAAAAAAAAAAAAAAACAUGUCAGAAGGGACAUGGA [Design 51: Sub-opt G] | 22.8 | 22.2
